These results are taken from the supplement of paper PMC10201428.

The chains are these.
B1: library; a variant is named by its letters at N, in order (parent)
chain: AATGTTGTTGATGCAACCATAAAGTGATATTTAATAATTATTTATAATCAGCAACTTAACCACAAAACAACCATATATTGATATNTCACAAAACAACCATAANTTGATATTTTTGTGAATCGAGTATTTCAGCAAAACTACTGCAGTAAGAA

± gives the standard deviation of the averaged measurements.

Series [1] covers variants of B1. Description: relative integration efficiency (T-LR orientation) vs wild-type transposon end (log2 (normalized fold change)); transposon end mutated: left end; higher = more efficient transposition. Particulars: with VchCAST RNA-guided transposition machinery (E. coli BL21(DE3) host, lacZ target). The method in brief: (§1)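 A T7-driven effector plasmid encoding a CRISPR array, tniQ-cas8-cas7-cas6 and tnsA-tnsB-tnsC was co-transformed into E. coli BL21(DE3) together with a pUC57 mini-transposon donor holding barcoded pools of 1549 left-end or 1849 right-end variants. Transformants were plated with 0.1 mM IPTG at 37°C for 18 h. Illumina sequencing of PCR-amplified input plasmids and genomic integration junctions gave barcode abundances, and relative integration efficiency is their output/input fold change, normalised to reference barcodes and log-transformed.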

The variants in series [2] derive from B1. Put plainly: relative integration efficiency (T-RL orientation) vs wild-type transposon end (log2 (normalized fold change)); transposon end mutated: left end; higher = more efficient transposition. To be noted: with VchCAST RNA-guided transposition machinery (E. coli BL21(DE3) host, lacZ target). The method in brief: as §1

As for CG G26C G80C G106C, the “relative integration efficiency (log2)” value in series [1] was -5.11 ± 2.5; in series [2], -6.9 ± 1.7.
With CG G7C T8A T9A G10C, the “relative integration efficiency (log2)” value was below -10 in series [1] and -6.612 ± 0.065 in series [2].
CG C49T: the “relative integration efficiency (log2)” value in series [1] is -0.164 ± 0.35; in series [2], 0.0612 ± 0.15.
As for CG C94G, the “relative integration efficiency (log2)” value is -1.16 ± 0.81 in series [1] and -0.958 ± 0.57 in series [2].
Consider CG C94A, for which the “relative integration efficiency (log2)” value is -0.54 ± 0.48 in series [1] and -0.268 ± 0.25 in series [2].
On to CG C94T, for which the “relative integration efficiency (log2)” value in series [1] is -0.715 ± 0.59; in series [2], -0.669 ± 0.41.
CG C98G A99T: the “relative integration efficiency (log2)” value was -1.62 ± 0.4 in series [1] and -1.51 ± 0.56 in series [2].
Consider CG G10T, for which the “relative integration efficiency (log2)” value is -1.38 ± 0.3 in series [1] and -0.454 ± 0.26 in series [2].
For CG G10C, the “relative integration efficiency (log2)” value was -1.66 ± 0.034 in series [1] and -0.357 ± 0.19 in series [2].
Consider CG G10A, for which the “relative integration efficiency (log2)” value in series [1] was -0.534 ± 0.039; in series [2], -0.083 ± 0.089.
With TG G24A T30A A70C T76A T86G, the “relative integration efficiency (log2)” value in series [1] was determined as 1.23 ± 0.52; in series [2], 0.692 ± 0.36.
As to CG C68T, the “relative integration efficiency (log2)” value in series [1] was -1.08 ± 0.81; in series [2], -0.627 ± 0.41.
Turning to CG C68A, the “relative integration efficiency (log2)” value was -0.255 ± 0.47 in series [1] and -0.433 ± 0.32 in series [2].
Taken in the same sequence, the figures for CG C68G were -0.736 ± 0.69 and -0.831 ± 0.36.
In the case of CG T3G G4T, the entries for the “relative integration efficiency (log2)” value in series [1] and in series [2] were 0.453 ± 0.4 and 0.121 ± 0.041, respectively.
Consider CG G7T, for which the “relative integration efficiency (log2)” value in series [1] is -4.09 ± 0.17; in series [2], -2.59 ± 0.72.
Taken in the same sequence, the figures for CG G7C were -0.0662 ± 0.49 and -0.11 ± 0.25.
CG G7A: the “relative integration efficiency (log2)” value is -0.532 ± 0.023 in series [1] and -0.156 ± 0.15 in series [2].
Regarding CG T12A G13A T31C T32A A77C T86G, the “relative integration efficiency (log2)” value was -0.861 ± 0.36 in series [1] and -0.573 ± 0.15 in series [2].
Regarding CG C60A C61A, the results for the “relative integration efficiency (log2)” value in series [1] and in series [2] were 0.547 ± 0.41 and 0.353 ± 0.049, respectively.
As for CG T3A G4C, the “relative integration efficiency (log2)” value was -0.231 ± 0.33 in series [1] and 0.0698 ± 0.073 in series [2].
In the case of CG G115T T116G, the “relative integration efficiency (log2)” value in series [1] worked out at 0.0607 ± 0.61; in series [2], 0.243 ± 0.033.
CG G24C T78A T104A: the “relative integration efficiency (log2)” value is -0.403 ± 0.24 in series [1] and -0.396 ± 0.19 in series [2].
For the variant CG G106T A107C T108G A109C, the “relative integration efficiency (log2)” value is -2.4 ± 0.46 in series [1] and -2.01 ± 0.81 in series [2].
For CG T12A G13A T30A T31C T32A the same measures were -1.04 ± 0.35 and -0.578 ± 0.26.
In the case of CG C55A T56G, the results for the “relative integration efficiency (log2)” value in series [1] and in series [2] were -0.293 ± 0.89 and 0.0947 ± 0.38, respectively.
For CG G117T A118C A119C T120G C121A G122T A123C G124T T125G the same measures were 0.16 ± 0.029 and 0.0955 ± 0.074.
CG C97A C98A: the figures for the “relative integration efficiency (log2)” value in series [1] and in series [2] were -1.76 ± 0.82 and -1.7 ± 0.77, respectively.
For CG C98A A99C, the figures for the “relative integration efficiency (log2)” value in series [1] and in series [2] were -1.94 ± 1 and -1.73 ± 0.54, respectively.
Taken in the same sequence, the figures for CG C68A A69C were -0.147 ± 0.86 and -0.266 ± 0.23.
Take CG C68G A69T: the “relative integration efficiency (log2)” value is -0.877 ± 0.31 in series [1] and -1.02 ± 0.41 in series [2].
Consider CG T3G G4T T5G T6G, for which the “relative integration efficiency (log2)” value in series [1] is below -10; in series [2] it was -7.767 ± 0.04.
Take CG C60A C61A A62C C63A: the “relative integration efficiency (log2)” value in series [1] is 0.51 ± 0.29; in series [2] it was 0.406 ± 0.095.
Turning to CG C60G, the “relative integration efficiency (log2)” value in series [1] is 0.358 ± 0.26; in series [2], -0.0988 ± 0.017.
In the case of CG C60A, the “relative integration efficiency (log2)” value is 0.503 ± 0.15 in series [1] and 0.0973 ± 0.034 in series [2].
Turning to CG C60T, the “relative integration efficiency (log2)” value in series [1] was 0.161 ± 0.34; in series [2], -0.00379 ± 0.0024.
For CG G80C A81T the same measures were -2.2 ± 1.5 and -2.1 ± 0.85.
Take CG G26T G80T G106T: the figures for the “relative integration efficiency (log2)” value in series [1] and in series [2] were -1.86 ± 1.8 and -2.79 ± 1.3, respectively.
Regarding CG C55G, the “relative integration efficiency (log2)” value in series [1] is 0.245 ± 0.15; in series [2], 0.177 ± 0.069.
For CG C55A the same measures were -0.0412 ± 0.7 and 0.0708 ± 0.088.
Consider CG C55T, for which the “relative integration efficiency (log2)” value in series [1] is 0.102 ± 0.26; in series [2], -0.123 ± 0.13.
For CG T6C the same measures were -1.5 ± 1 and -2.65 ± 0.37.
As to CG T6A, the figures for the “relative integration efficiency (log2)” value in series [1] and in series [2] were below -10 and -6.68 ± 0.076, respectively.
Consider CG C61A A62C, for which the “relative integration efficiency (log2)” value in series [1] stood at 0.514 ± 0.034; in series [2], 0.443 ± 0.054.
Taken in the same sequence, the figures for TG G24A T30A T76A T78G C87A were 0.0926 ± 0.5 and 0.0283 ± 0.13.
Regarding CG G4T T5G T6G G7T, the results for the “relative integration efficiency (log2)” value in series [1] and in series [2] were below -10 and -6.583 ± 0.046, respectively.
In the case of CG C72G A73T, the “relative integration efficiency (log2)” value in series [1] is -1.6 ± 1.4; in series [2], -1.44 ± 0.73.
For CG C72G A73T T74A A75T the same measures were -1.75 ± 0.9 and -1.77 ± 0.81.
With CG T20A A21T, the “relative integration efficiency (log2)” value in series [1] was -0.406 ± 0.45; in series [2], -0.483 ± 0.31.
For the variant CG C63A, the “relative integration efficiency (log2)” value was 0.438 ± 0.02 in series [1] and 0.237 ± 0.012 in series [2].
CG C63T: the figures for the “relative integration efficiency (log2)” value in series [1] and in series [2] were 0.266 ± 0.018 and 0.0804 ± 0.061, respectively.
CG C63G: the entries for the “relative integration efficiency (log2)” value in series [1] and in series [2] were 0.324 ± 0.23 and 0.223 ± 0.039, respectively.
For TG G24A T30A T76A T78A T84A C87A the same measures were 0.236 ± 0.09 and 0.0157 ± 0.17.
With CG C71G C72G, the entries for the “relative integration efficiency (log2)” value in series [1] and in series [2] were -1.67 ± 1.9 and -1.32 ± 0.57, respectively.
Turning to CG C121A A123G G124A T129C G132A A134C A135T A136T A137C C138A C141G G143T C144T, the “relative integration efficiency (log2)” value came to 0.708 ± 0.024 in series [1] and 0.721 ± 0.23 in series [2].
For CG C63A A64C, the “relative integration efficiency (log2)” value in series [1] was 0.557 ± 0.37; in series [2], -0.135 ± 0.079.
Taken in the same sequence, the figures for CG G24T T25G were -0.649 ± 0.2 and -0.561 ± 0.34.
For TG G24A T30A T76A A77G C87T, the “relative integration efficiency (log2)” value in series [1] worked out at 0.724 ± 0.54; in series [2], 0.0845 ± 0.24.
